In patent publication US20240216557A1 (Memorial Sloan Kettering, published 2024):

B1: F21 (antibody, V domains shown)
VH: EVQLVESGGGLVQPGGSLRLSCAASGFTFSSYWMSWVRQAPGKGLEWVANIKQDGSEKYYVDSVKGRFTISRDNAKNSLYLQMNSLRAEDTAVYYCAREWLRFGGLVYWGQGTLVTVSS
VL: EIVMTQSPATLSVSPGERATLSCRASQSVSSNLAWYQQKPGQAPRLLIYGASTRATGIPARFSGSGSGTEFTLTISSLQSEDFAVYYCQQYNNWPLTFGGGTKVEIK
notes: Purified hybridoma monoclonal antibody; loaded on anti-mouse Fc sensors in BLI
B2: D8 (antibody, V domains shown)
VH: QVQLVQSGAEVKKPGASVKVSCKASGYTFTTYYMHWVRQAPGQGLEWMGIINPSGGSTSYAQKFQGRVTMTRDTSTSTVYMELSSLRSEDTAVYYCARQGHYIGNYLDYWGQGTLVTVSS
VL: not shown
notes: as for B1
B3: L12 (antibody, V domains shown)
VH: QVQLVQSGAEVKKPGASVKVSCKASGYTFTSYYMHWVRQAPGQGLEWMGIINPSGGSRSYAQKFQGRVTMTRDTSTSTVYMELSSLRSEDTAVYYCARQLELLGNAFDIWGQGTMVTVSS
VL: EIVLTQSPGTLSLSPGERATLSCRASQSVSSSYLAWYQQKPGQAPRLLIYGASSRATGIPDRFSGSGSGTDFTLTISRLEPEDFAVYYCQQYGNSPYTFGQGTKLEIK
notes: as for B1
B4: C22 (antibody, V domains shown)
VH: QVQLVQSGAEVKKPGASVKVSCKASGYTFTSYYMHWVRQAPGQGLEWMGIINPSGGSTSYAQKFQGRVTMTRDTSTSTVYMELSSLRSEDTAVYYCARVADIVGATFDYWGQGTLVTVSS
VL: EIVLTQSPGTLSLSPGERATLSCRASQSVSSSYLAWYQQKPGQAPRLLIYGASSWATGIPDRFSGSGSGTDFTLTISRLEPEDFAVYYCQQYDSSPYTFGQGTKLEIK
notes: as for B1
B5: J23 (antibody, V domains shown)
VH: QVQLVQSGAEVKKPGASVKVSCKASGYTFTSYYMHWVRQAPGQGLEWMGIINYSGGSKSYAQKFQGRVTMTRDTSTSTVYMELSSLRSEDTGVYYCARQGRYSGSYLDYWGQGTLVTVSS
VL: not shown
notes: as for B1
B6: M11 (antibody, V domains shown)
VH: QVQLVQSGAEVKKPGASVKVSCKASGYTFTSYYIHWVRQAPGQGLEWMGIINPSGGSKSYAQKFQGRVTMTRDTSTGTVYMELSSLRSEDTAVYYCAGQLELLGNAFDIWGQGTMVTVSS
VL: not shown
notes: as for B1
B7: J8 (antibody, V domains shown)
VH: QVHLVQSGAEVKKPGASVKVSCKASGYTFTIYYIHWVRQAPGQGLEWMGIINPSGGSTSYAQKFQGRVTMTRDTSTSTVYMELSSLRSEDTAVYYCSGNDYVDYVTTDYYGMDVWGQGTTVTVSS
VL: DIQMTQSPSSLSASVGDRVTITCRASQGISNYLAWFQQKPGKAPKSLIYAASSLQSGVPSKFSGSGSGTDFTLTISSLQPEDFATYYCQQYNSSPYTFGQGTKLEIK
B8: B2 (antibody, V domains shown)
VH: QVQLVQSGAEVKKPGASVKVSCKASGYTFTSYYMHWVRQAPGQGLEWMGIINPSGGSTSYAQKFRGRVTMTRDTSTSTVYMELSSLRSEDTAVYYCARGDYDILTDYYYNMDVWGQGTTVTVSS
VL: DIQMTQSPSAMSASVGDRVTITCRASQGISNYLAWFQQKPGKVPKRLIYAASSLQSGVPSRFSGSGSGTEFTLTISSLQPEDFATYYCLQHNSYPYTFGQGTKLEIK
B9: E9 (antibody, V domains shown)
VH: QVQLVQSGAEVKKPGASVKVSCKASGYTFTSYYMHWVRQAPGQGLEWMGVINSSGGSTSYAQKFQGRVTMTRDTSTSTVYMDLSSLRSEDTAVYYCARGYCTNGVYYDEDFDYWGQGTLVTVSS
VL: DIQMTQSPSSLSASVGDRVTITCRASQGISHYLAWFQQKPGKAPTSLIYAASSLQSGVPSKFSGSGSGTDFTLTISSLQPEDFATYYCQQYNSYPLTFGGGTKVEIK
notes: Purified hybridoma monoclonal antibody (Ablexis AlivaMab Kappa mice); loaded on anti-mouse Fc sensors in BLI
B10: O24 (antibody, V domains shown)
VH: QVQLVQSGAEVKKPGASVKVSCKASGYTFTSYYLHWVRQAPGHGLEWMAIINPSGGSTSYAQKFLGRVTMTRDTSTNTVYMELSSLRSEDTAVYYCARERQQLDYYYFAMDVWGQGTTVTVSS
VL: DIQMTQSPSSLSASVGDRVTITCRASQGISNYLAWFQQKPGKAPKSLIYAASSLQSGVPSKFSGSGSGTDFTLTISSLQPEDFATYYCQQYNSYPPTFGQGTKVEIK
notes: the description prints the designation as '024' (zero); also called 024
B11: G3 (antibody, V domains shown)
VH: QVQLQESGPGLVKPSETLFLTCTVSGGSISSYYWTWIRQPAGKGLEWIGRIYTSGSTNYNPSLKSRVTMSVDTSKNQFSLKLSSVTAADTAVYYCAREDWESWTFDIWGQGTMVTVSS
VL: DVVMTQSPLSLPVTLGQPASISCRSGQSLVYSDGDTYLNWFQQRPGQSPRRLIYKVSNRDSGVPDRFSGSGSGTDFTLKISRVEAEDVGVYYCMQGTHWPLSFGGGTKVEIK
notes: as for B1
B12: L22 (antibody, V domains shown)
VH: EVQLLESGGGLVQPGGSLRLSCAASGFTFSSYAMGWVRQTPGKGLEWVSTISGRGGDTYYADSVKGRFTISRDNSKNTLYLQMNSLRAEDTAIYYCAKERGLGFDYWGQGTLVTVSS
VL: DIVMTQTPLSLPVTPGEPASISCRSSQSLLDSDDGNTYLDWYLQKPGQSPQLLIYTLSYRASGVPDRFSGSGSGTDFTLKISRVEAEDVGVYYCMQHLEFPLTFGGGTKVEIK
B13: [89Zr]Zr-DFO-A18 antibody (antibody, V domains shown)
VH: QVTLRESGPALVKSTQTLTLTCTFSGFSLSTSGMCVSWIRQTPGKALEWLALIDWDDNKYYSTSLKTRLIISKDTSKNQVVLTMTNMEPVDTATYYCARIRGYSGSYDAFDIWGQGTMVTVSS
VL: DIVMTQSPLSLPVTPGEPASISCRSSQSLLHSNGYNYLDWYLQKPGQSPHILLYLGSNRAPGVPDRFSGSGSGTDFTLKISRVEAEDVGVYYCMQALQTPFTFGPGTKVDIK
modifications: p-SCN-Bn-DFO chelator bioconjugated to the antibody (sites not given), radiolabeled with Zr-89
notes: also called A18 (monoclonal IgG4, DFO-conjugated, Zr-89 labeled)
B14: A18 (antibody, V domains shown)
VH: QVTLRESGPALVKSTQTLTLTCTFSGFSLSTSGMCVSWIRQTPGKALEWLALIDWDDNKYYSTSLKTRLIISKDTSKNQVVLTMTNMEPVDTATYYCARIRGYSGSYDAFDIWGQGTMVTVSS
VL: DIVMTQSPLSLPVTPGEPASISCRSSQSLLHSNGYNYLDWYLQKPGQSPHILLYLGSNRAPGVPDRFSGSGSGTDFTLKISRVEAEDVGVYYCMQALQTPFTFGPGTKVDIK
notes: Purified hybridoma monoclonal antibody
B15: F9 (antibody, V domains shown)
VH: QVQLVQSGAEVKKPGASVQVSCKASGYTFTSYYMHWVRQAPGQGLEWMGIINPSGGSTSYAQKFQGRVTMTRDTSTSTVYMELSSLRSEDTAVYYCARQGGAQWLVLAFDIWGQGTMVTVSS
VL: EIVLTQSPGTLSLSPGERATLSCRASQSVSSYLAWYQQKPGQPPRLLIYGASSRATGIPDRFSGGGSGTDFTLTISRLEPEDFAVYYCQQYDSSPYTFGQGTKLEIK
notes: also called 1F9
B16: G16 (antibody, V domains shown)
VH: QVQLVQSGAEVKKPGASVQVSCKASGYTFTSYYMHWVRQAPGQGLEWMGIINPSGGSTSYAQKFQGRVTMTRDTSTSTVYMELSSLRSEDTAVYYCARQGGAQWLVLAFDIWGQGTMVTVSS
VL: EIVLTQSPGTLSLSPGERATLSCRASQSVSSYLAWYQQKPGQAPRLLIYGASSRATGIPDRFSGGGSGTDFTLTISRLEPEDFAVYYCQQYGSSPYTFGQGTKLEIK
notes: as for B1
B17: E23 (antibody, V domains shown)
VH: QVQLVQSGAEVRKPGASVKVSCKASGYTFTGYYMHWVRQAPGQGLEWMGWINSYSGGANYAQKFQDRVTMTRDTSVSTASMELSRLRSDDTAVYYCARDGSGWYGSYFDFWGQGTLVTVSS
VL: DIVMTQTPLSSPVTLGQPASISCRSSQSLVHSDGNTYLSWLQQRPGQPPRLLIYKISNRFSGVPDRFSGSGAGTDFTLKISRVEAEDVGFYYCIQTTQFPLTFGGGTKVEIK
notes: loaded on anti-mouse Fc sensors in BLI
B18: P4 (antibody, V domains shown)
VH: EVQLVESGGGLVKPGGSLRLSCAASGFTFSFYSMNWVRQAPGKGLEWVSSISSSSSYIYYADSVKGRFTISRDNAKNSLYLQMNSLRAEDTAVYYCARNYDFWRGAFDIWGQGTMVTVSS
VL: not shown
notes: as for B1
B19: B22 (antibody, V domains shown)
VH: EVQLVESGGGLVQPGGSLRLSCAASGFTFNNFWMSWVRQAPGKGLEWVANIKQDGSEKYYVDSVKGRFTISRDNAKNSLYLQMNSLRAEDTAVYYCARESYFDLWGRGTLVTVSS
VL: QAVVTQESALTTSPGETVTLTCRSSTGAVTTSNYANWVQEKPDHLFTGLIGGTNNRAPGVPARFSGSLIGDKAALTITGAQTEDEAIYFCALWYSNRWVFGGGTKLTVL
notes: as for B1

Experiments:
[1] = target: T1, Recombinant Human DLL3 Protein (amino acids Ala27-Ala479, cat #9749-DL, R&D Systems) (human, UniProt Q9NYJ7 27-479); test: BLI, Octet HTX, 25 C; mAb on anti-mouse Fc sensors, DLL3 as analyte from 200 nM
T1 construct: Bought protein
T1 sequence: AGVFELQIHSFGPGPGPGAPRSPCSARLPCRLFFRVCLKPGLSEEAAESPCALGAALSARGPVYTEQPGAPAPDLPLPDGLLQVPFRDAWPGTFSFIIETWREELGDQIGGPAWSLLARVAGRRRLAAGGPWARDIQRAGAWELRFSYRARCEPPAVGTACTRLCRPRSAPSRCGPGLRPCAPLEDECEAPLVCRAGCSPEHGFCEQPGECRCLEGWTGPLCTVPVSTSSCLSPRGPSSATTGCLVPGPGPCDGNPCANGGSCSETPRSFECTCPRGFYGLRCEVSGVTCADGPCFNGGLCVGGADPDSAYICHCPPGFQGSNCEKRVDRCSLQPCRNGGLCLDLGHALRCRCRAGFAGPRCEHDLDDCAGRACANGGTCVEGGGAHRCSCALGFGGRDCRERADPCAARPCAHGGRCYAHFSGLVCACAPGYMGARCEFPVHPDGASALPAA

[2] = target: T2, hDLL3 (human, UniProt Q9NYJ7 27-479, limits assumed); test: ELISA; signal unit not stated
T2 construct: also called human DLL3
T2 sequence: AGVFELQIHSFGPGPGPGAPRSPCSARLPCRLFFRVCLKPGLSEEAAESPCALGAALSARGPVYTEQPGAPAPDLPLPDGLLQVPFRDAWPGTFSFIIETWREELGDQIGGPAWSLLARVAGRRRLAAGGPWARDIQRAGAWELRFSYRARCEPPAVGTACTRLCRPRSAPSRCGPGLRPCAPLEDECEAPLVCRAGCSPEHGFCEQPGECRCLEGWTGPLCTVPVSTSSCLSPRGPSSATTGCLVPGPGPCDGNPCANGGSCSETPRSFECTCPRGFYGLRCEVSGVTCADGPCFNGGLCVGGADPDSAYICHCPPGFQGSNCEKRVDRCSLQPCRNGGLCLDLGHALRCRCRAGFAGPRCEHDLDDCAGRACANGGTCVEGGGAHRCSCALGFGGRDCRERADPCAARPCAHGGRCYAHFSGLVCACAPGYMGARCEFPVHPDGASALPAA

[3] = target: hDLL4 (human, UniProt Q9NR61 27-524, limits assumed); test: ELISA; signal unit not stated
Chain of hDLL4 (Q9NR61 27-524 limits assumed): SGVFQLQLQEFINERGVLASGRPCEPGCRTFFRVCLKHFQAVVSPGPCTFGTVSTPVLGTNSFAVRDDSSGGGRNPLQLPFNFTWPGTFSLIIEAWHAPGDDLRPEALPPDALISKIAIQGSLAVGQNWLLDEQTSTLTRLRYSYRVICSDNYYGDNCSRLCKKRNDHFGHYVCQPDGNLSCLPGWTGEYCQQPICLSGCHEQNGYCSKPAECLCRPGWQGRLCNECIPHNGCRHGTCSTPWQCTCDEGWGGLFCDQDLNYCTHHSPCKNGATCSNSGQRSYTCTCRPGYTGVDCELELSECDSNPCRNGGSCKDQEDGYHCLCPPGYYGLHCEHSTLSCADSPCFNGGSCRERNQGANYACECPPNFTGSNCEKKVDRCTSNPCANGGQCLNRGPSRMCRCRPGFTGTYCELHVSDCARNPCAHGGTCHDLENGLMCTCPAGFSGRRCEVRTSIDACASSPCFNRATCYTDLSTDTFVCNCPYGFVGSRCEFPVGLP

[4] = target: T2, hDLL3; test: method not stated (column 'Affinity hDLL3')
[5] = target: T3, DLL3 on H82 xenograft tumor cells (UniProt Q9NYJ7 27-618, limits assumed); test: immunoPET imaging of athymic mice bearing right flank subcutaneous H82 xenografts after tail vein injection of the Zr-89 labelled antibody; time point not printed on the sheet
T3 construct: whole, on cells; H82 is a human SCLC line by general knowledge
T3 sequence (looked up): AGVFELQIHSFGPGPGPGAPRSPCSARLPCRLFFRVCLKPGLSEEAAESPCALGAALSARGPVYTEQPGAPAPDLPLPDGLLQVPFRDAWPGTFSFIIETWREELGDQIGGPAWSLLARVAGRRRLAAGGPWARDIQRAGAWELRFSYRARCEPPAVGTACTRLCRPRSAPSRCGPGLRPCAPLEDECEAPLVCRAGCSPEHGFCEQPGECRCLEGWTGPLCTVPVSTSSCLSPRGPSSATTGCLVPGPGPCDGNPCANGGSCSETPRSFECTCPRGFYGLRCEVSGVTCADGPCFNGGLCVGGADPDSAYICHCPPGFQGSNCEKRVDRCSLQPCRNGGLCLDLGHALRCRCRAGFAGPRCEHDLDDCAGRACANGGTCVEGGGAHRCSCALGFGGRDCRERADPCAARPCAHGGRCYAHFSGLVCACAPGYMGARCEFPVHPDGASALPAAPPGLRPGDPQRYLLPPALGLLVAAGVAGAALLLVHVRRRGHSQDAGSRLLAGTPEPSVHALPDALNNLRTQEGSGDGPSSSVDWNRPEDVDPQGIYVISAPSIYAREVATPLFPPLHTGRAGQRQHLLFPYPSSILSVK

| Binder | Kd [1] [nM] | also measured |
| --- | --- | --- |
| B1 | 6.12 | – |
| B2 | 0.438 | – |
| B3 | 3.1 | – |
| B4 | 0.431 | – |
| B5 | 0.998 | – |
| B6 | 2.76 | – |
| B7 | 0.001 | ELISA hDLL3 [2]: 1.38; ELISA hDLL4 [3]: 0.085; Kd [4]: < 0.001 nM |
| B8 | 1.46 | ELISA hDLL3 [2]: 1.21; ELISA hDLL4 [3]: 0.043 |
| B9 | 0.3 | – |
| B10 | 1.28 | – |
| B11 | 0.908 | – |
| B12 | 3.55 | ELISA hDLL3 [2]: 1.64; ELISA hDLL4 [3]: 0.056; Kd [4]: 1.46 nM |
| B13 | – | binding result [5]: binds |
| B14 | 0.236 | – |
| B15 | 3.01 | – |
| B16 | 4.88 | – |
| B17 | 0.511 | – |
| B18 | 6.5 | – |
| B19 | 1.84 | – |
